Experiments:
[1] = In vitro ADC stability in cynomolgus monkey serum, immunoprecipitation, reduction and LC-MS; assay type: in vitro ADME, Cynomolgus (Macaca fascicularis); conditions: spiked 100 μg/mL, 37° C.
Description: (§1) ADCs were spiked in sterile mouse, rat or cynomolgus serum at a concentration of 100 μg/ml. Aliquots of 100 μl were incubated at +37° C. in Protein LoBind Tube (Eppendorf, Montesson, France). At specific times (day 1, day 4, day 7 and day 11) samples were removed from the oven and stored at −20° C. until sample processing and analysis.
ADCs were immunoprecipitated from sera using the following protocol. Briefly, 100 μl M-280 Streptavidin magnetics beads suspension were washed three times with HBS-EP buffer (0.01 M HEPES pH 7.4, 0.15 M NaCl, 3 mM EDTA, 0.005% v/v Surfactant P20) and incubated for 30 min at RT with the CaptureSelect™ Human IgG-Fc PK Biotin conjugate. Serum samples from stability studies were then added to the beads and incubated for 2 h at RT. After washing steps with HBS-EP buffer and HBS buffer (10 mM HEPES, 150 mM NaCl, 3 mM EDTA pH 7.6), the ADC was eluted with 0.4% TFA in water. After freeze drying, the samples were reconstituted and incubated with 34 mM DTT in denaturing buffer (6 M Guanidine, 0.1 M Tris, 2 mM EDTA pH 8.0) for 45 min at 56° C.
Acetic acid was then added to quench the reaction and samples were analysed by LC-MS.
Reverse phase separation was performed on an ultra-high performance liquid chromatography (UHPLC) system (Acquity UPLC H-Class Bio system, Waters) coupled to a Synapt G2si mass spectrometer, instrument control was performed using MassLynx® software (Waters).
The reduced samples were directly injected on a PLRP-S column (2.1×150 mm 8 μm, 1000 Å, Agilent) heated at 80° C. with a flow rate of 0.5 ml/min. Elution was performed with water as eluent A and acetonitrile as eluent B, both containing 0.05% TFA. The following elution gradient was applied, B was raised from 30% to 45% in 13 min and then from 45% to 95% in 2 min. The column was washed using 95% B and equilibrated using 30% B for 10 min. The autosampler temperature was set at 10° C. […]
Data were analysed using Biopharmalynx™ (Waters) software. […]

[2] = In vitro stability in cynomolgus monkey serum by total antibody and ADC ELISAs; assay type: in vitro ADME, Cynomolgus (Macaca fascicularis); conditions: 37° C., ELISA
Description: as §1
Four different Ligand Binding Assay (LBAs) systems were used to determine Total Ab or ADC concentrations for ADC1 and ADC2[19]. More precisely, an antigen-specific assay was used for ADC1 and a universal method for ADC2. For the ADC quantification, specific anti-drugs were used relevant to the payload of the ADC.
Briefly, standard microtiter plates (MSD, Gaithersburg, USA) were coated at a concentration of 2 μg/ml Goat anti Human IgG, Monkey adsorbed antibody (SouthernBiotech) for Total Ab or of 3 μg/ml mouse monoclonal antibody raised against the payloads (Epitope Diagnostic Inc.) for ADC assays in PBS. After an overnight incubation at 4° C., plates were treated with blocking buffer (3% MSD Blocker A (MSD, Gaithersburg, USA)) for 1 h at 37° C. In parallel, the standard curves (1000 ng/ml-0.488 ng/ml) using reference immunoconjugates (ADC1 or ADC2) were prepared in assay buffer (1% MSD Blocker in TBS+0.02% Tween 20). Serum samples were diluted to 1:1000 or 1:5000 in a separate 2-ml deep 96-well polypropylene plate in MSD assay buffer. Standards and samples were then loaded onto the assay plate and incubated for 1 h at 37° C. After washing with 1×PBS, the detection step was done using a 2.5 μg/ml solution of the biotinylated antigen for the ADC1 (in house preparation) or a goat anti-human Ig Kappa sulfo-tag solution (in house preparation) diluted to 1 μg/ml in assay buffer for ADC2. After a 30-min incubation at 37° C., and a washing step, the detection was allowed by adding 150 μl of a 2×MSD-read T buffer containing surfactant (MSD, Gaithersburg, USA) just before reading using MSD Sector Imager.
The amount of total antibody and ADC, in serum samples was evaluated in parallel by a quantitative sandwich ELISA. […]

Brentuximab vedotin [ADC2]
average DAR ([1]; day 0): 4.5
average DAR ([1]; day 4): 2.0
average DAR ([1]; days 4 to 11): stable
ADC level normalized against the total Ab concentration at each time point ([2]; 11 days): decreased mainly during the four first days
ADC concentration ([2]; over the 11-day period): decreased during this period
total Ab level ([2]; over the 11-day period): ~100 µg/mL
